Laboratory results: publication PMC4858292, “Determination of the CD148-Interacting Region in Thrombospondin-1” (PLoS ONE, 2016)

B1: Trimeric TSP1 fragment, oligomerization domain + procollagen + type 1 repeats (aa 261–547) (domain or fragment, human, UniProt P07996 261-547, looked up)
chain: HKTKDLQAICGISCDELSSMVLELRGLRTIVTTLQDSIRKVTEENKELANELRRPPLCYHNGVQYRNNEEWTVDSCTECHCQNSVTICKKVSCPIMPCSNATVPDGECCPRCWPSDSADDGWSPWSEWTSCSTSCGNGIQQRGRSCDSLNNRCEGSSVQTRTCHIQECDKRFKQDGGWSHWSPWSSCSVTCGDGVITRIRLCNSPSPQMNGKPCEGEARETKACKKDACPINGGWGPWSPWDICSVTCGGGVQKRSRLCNNPTPQFGGKDCVGDVTENQICNKQDCP
notes: Subcloned into HindIII and XbaI sites of the APtag-5 vector; also called trimeric TSP1 fragment containing the procollagen domain and type 1 repeats; trimeric TSP1 fragment that contains all three type 1 repeats; source: HEK293E suspension culture, transient transfection, purified from culture supernatant (HisTrap Excel); not shown: Myc, C-terminal, kept
B2: Trimeric TSP1 fragment, oligomerization domain + procollagen (aa 261–373) (domain or fragment, human, UniProt P07996 261-373, looked up)
chain: HKTKDLQAICGISCDELSSMVLELRGLRTIVTTLQDSIRKVTEENKELANELRRPPLCYHNGVQYRNNEEWTVDSCTECHCQNSVTICKKVSCPIMPCSNATVPDGECCPRCW
notes: thrombospondin-1 (TSP1), human, oligomerization domain + procollagen, aa 261-373; Subcloned into HindIII and XbaI sites of the APtag-5 vector; also called trimeric TSP1 fragment containing the procollagen domain alone; source: HEK293E suspension culture, transient transfection, purified from culture supernatant (HisTrap Excel); not shown: Myc, C-terminal, kept
B3: Trimeric TSP1 fragment, oligomerization domain + procollagen + 1^st & 2^nd type 1 repeats (aa 261–490) (domain or fragment, human, UniProt P07996 261-490, looked up)
chain: HKTKDLQAICGISCDELSSMVLELRGLRTIVTTLQDSIRKVTEENKELANELRRPPLCYHNGVQYRNNEEWTVDSCTECHCQNSVTICKKVSCPIMPCSNATVPDGECCPRCWPSDSADDGWSPWSEWTSCSTSCGNGIQQRGRSCDSLNNRCEGSSVQTRTCHIQECDKRFKQDGGWSHWSPWSSCSVTCGDGVITRIRLCNSPSPQMNGKPCEGEARETKACKKDACP
notes: thrombospondin-1 (TSP1), human, oligomerization domain + procollagen + 1st and 2nd type 1 repeats, aa 261-490; Subcloned into HindIII and XbaI sites of the APtag-5 vector; source: HEK293E suspension culture, transient transfection, purified from culture supernatant (HisTrap Excel); not shown: Myc, C-terminal, kept
B4: Trimeric TSP1 fragment, oligomerization domain + procollagen and 1^st type 1 repeat (aa 261–429) (domain or fragment, human, UniProt P07996 261-429, looked up)
chain: HKTKDLQAICGISCDELSSMVLELRGLRTIVTTLQDSIRKVTEENKELANELRRPPLCYHNGVQYRNNEEWTVDSCTECHCQNSVTICKKVSCPIMPCSNATVPDGECCPRCWPSDSADDGWSPWSEWTSCSTSCGNGIQQRGRSCDSLNNRCEGSSVQTRTCHIQECD
notes: thrombospondin-1 (TSP1), human, oligomerization domain + procollagen + 1st type 1 repeat, aa 261-429; Subcloned into HindIII and XbaI sites of the APtag-5 vector; also called trimeric TSP1 fragment containing the procollagen domain and the 1st type 1 repeat; source: HEK293E suspension culture, transient transfection, purified from culture supernatant (HisTrap Excel); not shown: Myc, C-terminal, …

Biological target: the molecule itself
Experiment: SDS-PAGE in non-reducing and reducing conditions; purified fragments separated in non-reducing and reducing (50 mM DTT) conditions; colloidal blue stain and anti-Myc immunoblot

| Protein | stoichiometry N |
| --- | --- |
| B1 | 3 |
| B2 | 3 |
| B3 | 3 |
| B4 | 3 |
